Results as given in patent US20100015126A1, “Methods of Binding of Cross-Beta Structures By Chaperones” (priority 2006, published 2010).

Legend:
human BiP [1] = target: T1, human BiP (Homo sapiens, UniProt P11021); test: ELISA: binding of BiP in cell culture supernatant to immobilized misfolded proteins; settings: undiluted supernatant of 293E cells overexpressing BiP; ligands coated at 5 μg/ml, Aβ 20 μg/ml
T1 construct: The human BiP gene except the signal peptide encoding region was obtained from Geneart (Germany); linker […]; made in house; host or cells: HEK 293E cells, transient transfection, PABC674 vector; secreted into the medium
T1 sequence (P11021 19-654): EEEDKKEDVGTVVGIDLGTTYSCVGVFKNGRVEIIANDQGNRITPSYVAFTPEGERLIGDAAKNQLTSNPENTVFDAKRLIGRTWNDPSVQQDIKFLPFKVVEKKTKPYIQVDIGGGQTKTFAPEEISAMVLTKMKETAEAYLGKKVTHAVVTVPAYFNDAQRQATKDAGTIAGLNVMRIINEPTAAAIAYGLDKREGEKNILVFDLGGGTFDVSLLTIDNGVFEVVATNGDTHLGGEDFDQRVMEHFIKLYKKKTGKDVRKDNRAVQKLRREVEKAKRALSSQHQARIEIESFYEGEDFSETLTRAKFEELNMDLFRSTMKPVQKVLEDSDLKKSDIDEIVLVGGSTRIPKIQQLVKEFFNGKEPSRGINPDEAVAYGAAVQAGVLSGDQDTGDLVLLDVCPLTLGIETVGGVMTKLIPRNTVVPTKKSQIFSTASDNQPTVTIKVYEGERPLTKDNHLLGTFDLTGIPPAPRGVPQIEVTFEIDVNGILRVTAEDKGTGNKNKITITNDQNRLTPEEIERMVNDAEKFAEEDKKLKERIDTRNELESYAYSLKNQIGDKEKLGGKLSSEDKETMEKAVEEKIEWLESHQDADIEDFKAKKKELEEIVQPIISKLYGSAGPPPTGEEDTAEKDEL
Description: Binding of BiP to Misfolded Proteins with Crossbeta Structure
Proteins at 5 μg/ml were coated for 1 h at room temperature with agitation, in Microlon high-binding ELISA plates (Greiner) in 50 mM NaHCO3 pH 9.6, except for Aβ that was coated at 20 μg/ml. Buffer was coated as negative control. A twofold dilutions series of cell culture supernatant of HEK 293E cells overexpressing BiP was also coated to the plate for anti-FLAG-tag antibody control purposes. Plates were washed and blocked with ½*Blocking reagent (Roche). Undiluted cell culture supernatant enriched with 0.1% Tween20 was added to the wells with immobilized protein ligands and incubated for 1 h at room temperature with agitation. Medium was discarded and the plate was washed with PBS with 0.1% v/v Tween20. Mouse monoclonal anti-FLAG-tag antibody (Sigma, A8592, anti-FLAG M2PO conjugate) was diluted 1000× in PBS/0.1% Tween20 and added to all wells, including those that are coated with cell culture supernatant. After a 1 h incubation at room temperature with agitation and after washing, wells were overlayed with 3000× diluted RAMPO (DAKOCytomation) in PBS/0.1% Tween20. After 30 minutes the plate was washed and bound peroxidase was visualised with tetramethylbenzidine (TMB, #45.103.20/#45.014.01, Biosource, Nivelles, Belgium). The reaction was stopped after 5 minutes with 10% H2SO4 in H2O. Plates were read at 450 nm.

human BiP [2] = target: T1, human BiP; test: ELISA: binding of BiP-FLAG-His to immobilized (misfolded) protein ligands; settings: ligands coated at 5 μg/ml; 6BB peptides and oxLDL 50 μg/ml
Description: Enzyme Linked Immunosorbent Assay for Testing of Chaperone Binding to Misfolded Proteins
(§1) Binding of chaperones to immobilized (misfolded) protein ligands was determined using an enzyme linked immuno sorbent assay (ELISA) approach. For this purpose 50 μl/well of potential ligands at indicated concentrations or coat buffer only for control and background measurement purposes, were coated overnight at 4° C. or coated for 1 h at room temperature, with motion, in 50 mM NaHCO3 pH 9.6 (coat buffer). In general, ligands were coated at 5 μg/ml, unless stated otherwise. For example, BiP binding peptides 6BB# and oxLDL were coated at 50 μg/ml. Native haemoglobin (Sigma-Aldrich, H7379), albumin, IgIV Gammagard and ovalbumin controls were prepared from lyophilized stocks. The controls were prepared by dissolving lyophilized proteins at 1 mg/ml in PBS upon resuspending by pipetting, followed by a 30 minutes period at the roller device, at room temperature. The protein solutions were centrifuged for 10 minutes at 16,000*g and diluted in coat buffer. After coating the plates were washed at least three times with 50 mM Tris-HCl pH 7.3, 150 mM NaCl, 0.1% v/v Tween20, and blocked with Blocking reagent (Roche Diagnostics, Almere, The Netherlands; 11112589001), for 1 h at room temperature, with motion. Plates were washed three times and incubated in triplicate with indicated chaperone dilution series, at 50 μl/well, for 1 h at room temperature, with constant motion. For HSP90, 5 mM DTT is incorporated in the binding buffer (PBS/0.1% Tween20) to avoid unwanted disulfide bond formation of the HSP90. Plates were washed three times and incubated with anti-FLAG antibody (mouse antibody, M2, peroxidase conjugate; Sigma, A-8592) for BiP-FLAG-His, anti-His-tag antibody (Mouse Monoclonal Antibody, Cat. No. 70796, Novagen [0.2 mg/ml]) for HSP60, a 1:1 mix of 500-fold diluted anti-HSP90beta antibodies (Stressgen, SPA-643 [mouse monoclonal IgM], SPA-646 [rabbit polyclonal]) for HSP90 and an anti-DnaK antibody (Stressgen, 023SPA-880D [mouse monoclonal antibody]) for DnaK. After four wash cycles, secondary antibodies were added to the wells when required, 50 μl/well, for 45′ at room temperature, with motion. RAMPO and SWARPO were used at 3000 times dilution. […] In a second experiment with more immobilized misfolded proteins and controls, the detection of bound HSP90 with the mix of two anti-HSP90 antibodies was achieved by mixing 1:1500 SWARPO with 1:3000 RAMPO. After 5 washes with wash buffer followed by two washes with PBS, binding of antibodies was assessed. Bound anti-FLAG-PO, peroxidase-conjugated rabbit anti-mouse immunoglobulins (RAMPO, P0260, DAKOCytomation, Glostrup, Denmark) or peroxidase-coupled swine anti-rabbit immunoglobulins (SWARPO, P0217, DAKOCytomation) was visualized with tetramethylbenzidine (TMB, #45.01.20,/#45.014.01, Biosource, Nivelles, Belgium). The reaction was stopped after 5 minutes with 1% H2SO4 in H2O. Plates were read at 450 nm. Triplicates were averaged and standard deviations calculated. Background signals obtained with buffer-coated wells were subtracted (binding of primary antibody to empty wells), as well as background signals obtained with ligand-coated wells in which the chaperones were omitted (binding of primary and secondary antibody to coated ligands). Subsequently, sub-optimal concentrations of chaperones for binding to misfolded protein ligands are determined, and these concentrations are used for inhibition studies. […] We have previously identified that a sub-fraction of IgIV molecules has affinity for misfolded proteins comprising crossbeta structure (pending patent application). Moreover, we identified that the sub-fraction of IgIV molecules directly binds to crossbeta structure and/or crossbeta structure induced conformation (not shown; pending patent application). […]

[3] = target: T2, Escherichia coli HSP70 family member DnaK (Escherichia coli, UniProt P0A6Y8); test: ELISA: binding of DnaK to immobilized (misfolded) protein ligands
T2 construct: purchased Stressgen (Ann Arbor, Mich., USA) SPP-630
T2 sequence (P0A6Y8 whole entry): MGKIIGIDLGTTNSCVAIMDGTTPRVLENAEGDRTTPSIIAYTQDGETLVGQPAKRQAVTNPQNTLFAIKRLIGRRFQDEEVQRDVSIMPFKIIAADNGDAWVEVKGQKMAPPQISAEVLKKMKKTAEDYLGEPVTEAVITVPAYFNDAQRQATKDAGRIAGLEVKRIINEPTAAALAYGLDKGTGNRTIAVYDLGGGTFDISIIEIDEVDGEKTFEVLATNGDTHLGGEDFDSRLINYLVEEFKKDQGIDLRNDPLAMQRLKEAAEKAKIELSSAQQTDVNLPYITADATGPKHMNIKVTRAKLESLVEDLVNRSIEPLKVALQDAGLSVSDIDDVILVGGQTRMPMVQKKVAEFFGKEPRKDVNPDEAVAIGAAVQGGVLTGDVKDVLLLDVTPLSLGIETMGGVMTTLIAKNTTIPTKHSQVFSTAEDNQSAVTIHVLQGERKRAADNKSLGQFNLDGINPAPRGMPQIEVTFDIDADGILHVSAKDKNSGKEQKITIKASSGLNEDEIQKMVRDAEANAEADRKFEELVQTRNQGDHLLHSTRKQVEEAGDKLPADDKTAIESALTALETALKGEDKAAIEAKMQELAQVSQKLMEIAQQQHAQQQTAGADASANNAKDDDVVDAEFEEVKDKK
Description: Recombinant Escherichia coli (E. coli) DnaK was purchased from Stressgen (Ann Arbor, Mich., USA; SPP-630). For the binding studies first lot B502468 (100 μg, lot A) and then lot 05240609 (200 μg, lot B) was used.
as §1

[4] = Transmission electron microscopy (TEM); format: physicochemical; settings: 2.5 mg/ml peptide stocks
Description: Transmission Electron Microscopy (TEM)
TEM images were collected using a Jeol 1200 EX transmission electron microscope (Jeol Ltd., Tokyo, Japan) at an excitation voltage of 80 kV. For each sample, the formvar and carbon-coated side of a 100-mesh copper or nickel grid was positioned on a 5 μl drop of protein solution for 5 minutes. Afterwards, it was positioned on a 100 μl drop of PBS for 2 minutes, followed by three 2-minute incubations with a 100 μl drop of distilled water. The grids were then stained for 2 minutes with a 100 μl drop of 2% (m/v) methylcellulose with 0.4% uranyl acetate pH 4. Excess fluid was removed by streaking the side of the grids over filter paper, and the grids were subsequently dried under a lamp. Samples were analysed at a magnification of 10K.

human BiP [5] = target: T1, human BiP; test: Competition ELISA: BiP binding to misfolded proteins under influence of crossbeta binding compounds; settings: fixed sub-optimal BiP concentration
Description: Binding of chaperones to immobilized (misfolded) protein ligands was determined using an enzyme linked immuno sorbent assay (ELISA) approach. For this purpose 50 μl/well of potential ligands at indicated concentrations or coat buffer only for control and background measurement purposes, were coated overnight at 4° C. or coated for 1 h at room temperature, with motion, in 50 mM NaHCO3 pH 9.6 (coat buffer). In general, ligands were coated at 5 μg/ml, unless stated otherwise. For example, BiP binding peptides 6BB# and oxLDL were coated at 50 μg/ml. Native haemoglobin (Sigma-Aldrich, H7379), albumin, IgIV Gammagard and ovalbumin controls were prepared from lyophilized stocks. The controls were prepared by dissolving lyophilized proteins at 1 mg/ml in PBS upon resuspending by pipetting, followed by a 30 minutes period at the roller device, at room temperature. The protein solutions were centrifuged for 10 minutes at 16,000*g and diluted in coat buffer. After coating the plates were washed at least three times with 50 mM Tris-HCl pH 7.3, 150 mM NaCl, 0.1% v/v Tween20, and blocked with Blocking reagent (Roche Diagnostics, Almere, The Netherlands; 11112589001), for 1 h at room temperature, with motion. Plates were washed three times and incubated in triplicate with indicated chaperone dilution series, at 50 μl/well, for 1 h at room temperature, with constant motion. For HSP90, 5 mM DTT is incorporated in the binding buffer (PBS/0.1% Tween20) to avoid unwanted disulfide bond formation of the HSP90. […] After four wash cycles, secondary antibodies were added to the wells when required, 50 μl/well, for 45′ at room temperature, with motion. RAMPO and SWARPO were used at 3000 times dilution. […] In a second experiment with more immobilized misfolded proteins and controls, the detection of bound HSP90 with the mix of two anti-HSP90 antibodies was achieved by mixing 1:1500 SWARPO with 1:3000 RAMPO. After 5 washes with wash buffer followed by two washes with PBS, binding of antibodies was assessed. Bound anti-FLAG-PO, peroxidase-conjugated rabbit anti-mouse immunoglobulins (RAMPO, P0260, DAKOCytomation, Glostrup, Denmark) or peroxidase-coupled swine anti-rabbit immunoglobulins (SWARPO, P0217, DAKOCytomation) was visualized with tetramethylbenzidine (TMB, #45.01.20,/#45.014.01, Biosource, Nivelles, Belgium). The reaction was stopped after 5 minutes with 1% H2SO4 in H2O. Plates were read at 450 nm. Triplicates were averaged and standard deviations calculated. Background signals obtained with buffer-coated wells were subtracted (binding of primary antibody to empty wells), as well as background signals obtained with ligand-coated wells in which the chaperones were omitted (binding of primary and secondary antibody to coated ligands). Subsequently, sub-optimal concentrations of chaperones for binding to misfolded protein ligands are determined, and these concentrations are used for inhibition studies.
In a subsequent study we analysed whether BiP interacts directly with the crossbeta structure, by performing ELISA binding studies with a fixed sub-optimal concentration of BiP and concentration series of crossbeta binding compounds. The results are depicted in FIGS. 12, 13 and Table 7. Binding of BiP without added crossbeta binding compounds was set to 100%.

Substance | Binding of BiP to immobilized protein (ELISA) (human BiP [1]) | Binding of concentration series of BiP to coated ligand (human BiP [2]) | Binding of concentration series of DnaK to coated ligand [3] | TEM [4] | Influence of Congo red on interaction of BiP with misfolded protein (human BiP [5]; concentration series of Congo red) | Influence of ThS on interaction of BiP with misfolded protein (human BiP [5]; concentration series of ThS) | Influence of ThT on interaction of BiP with misfolded protein (human BiP [5]; concentration series of ThT)
d-lysozyme: heat-denatured hen egg-white lysozyme | more pronounced | – | – | – | – | – | –
HWDFAWPW [6BB10] | – | has been established | did not bind | Nothing visible^† | ↓ (a ↓ sign refers to inhibited abolished binding of BiP) | ↓ (a ↓ sign refers to inhibited abolished binding of BiP) | ↓ (a ↓ sign refers to inhibited abolished binding of BiP)
